Laboratory results taken from patent US11653679B2, “High-purity steviol glycosides” (PureCircle Sdn Bhd, priority 2014, dated 2023).
Changes are numbered by the printed parent chain.

B1: EUGT11: putative UDP-glucoronosyl and UDP-glucosyl transferase [Oryza sativa Japonica Group], from WO/2013/022989A2, SEQ ID NO:8 (protein, listed as Oryza sativa)
chain: MHVVICPLLAFGHLLPCLDLAQRLACGHRVSFVSTPRNISRLPPVRPSLAPLVSFVALPLPRVEGLPNGAESTHNVPHDRPDMVELHLRAFDGLAAPFSEFLGTACADWVMPTSSAPRQTLSSNIHRNSSRPGTPAPSGRLLCPITPHSNTLERAAEKLVRSSRQNARARSLLAFTSPPLPYRDVFRSLLGLQMGRKQLNIAHETNGRRTGTLPLNLCRWMWKQRRCGKLRPSDVEFNTSRSNEAISPIGASLVNLQSIQSPNPRAVLPIASSGVRAVFIGRARTSTPTPPHAKPARSAAPRAHRPPSSVMDSGYSSSYAAAAGMHVVICPWLAFGHLLPCLDLAQRLASRGHRVSFVSTPRNISRLPPVRPALAPLVAFVALPLPRVEGLPDGAESTNDVPHDRPDMVELHRRAFDGLAAPFSEFLGTACADWVIVDVFHHWAAAAALEHKVPCAMMLLGSAHMIASIADRRLERAETESPAAAGQGRPAAAPTFEVARMKLIRTKGSSGMSLAERFSLTLSRSSLVVGRSCVEFEPETVPLLSTLRGKPITFLGLMPPLHEGRREDGEDATVRWLDAQPAKSVVYVALGSEVPLGVEKVHELALGLELAGTRFLWALRKPTGVSDADLLPAGFEERTRGRGVVATRWVPQMSILAHAAVGAFLTHCGWNSTIEGLMFGHPLIMLPIFGDQGPNARLIEAKNAGLQVARNDGDGSFDREGVAAAIRAVAVEEESSKVFQAKAKKLQEIVADMACHERYIDGFIQQLRSYKD
B2: UGT76G1var79: UGT76G1 variant, mutations E224D_T284I_V366I_I373L_K393G (protein, UniProt Q6VAB4 1-458, looked up, variant E224D T284I V366I I373L K393G)
UDP-glycosyltransferase 76G1: MENKTETTVRRRRRIILFPVPFQGHINPILQLANVLYSKGFSITIFHTNFNKPKTSNYPHFTFRFILDNDPQDERISNLPTHGPLAGMRIPIINEHGADELRRELELLMLASEEDEEVSCLITDALWYFAQSVADSLNLRRLVLMTSSLFNFHAHVSLPQFDELGYLDPDDKTRLEEQASGFPMLKVKDIKSAYSNWQILKEILGKMIKQTKASSGVIWNSFKDLEESELETVIREIPAPSFLIPLPKHLTASSSSLLDHDRTVFQWLDQQPPSSVLYVSFGSISEVDEKDFLEIARGLVDSKQSFLWVVRPGFVKGSTWVEPLPDGFLGERGRIVKWVPQQEVLAHGAIGAFWTHSGWNSTLESICEGVPMLFSDFGLDQPLNARYMSDVLGVGVYLENGWERGEIANAIRRVMVDEEGEYIRQNARVLKQKADVSLMKGGSSYESLESLVSYISSL
B3: UGT76G1var87: UGT76G1 variant, mutations S241I_L243A_V300A_F314S_N409R (protein, UniProt Q6VAB4 1-458, looked up, variant S241I L243A V300A F314S N409R)
UDP-glycosyltransferase 76G1: B2 UDP-glycosyltransferase 76G1 with D224E, S241I, L243A, I284T, V300A, F314S, I366V, L373I, G393K, N409R
B4: UGT76G1var6: UGT76G1 variant, mutations Q266S_S357N_I373L (protein, UniProt Q6VAB4 1-458, looked up, variant Q266S S357N I373L)
UDP-glycosyltransferase 76G1: B2 UDP-glycosyltransferase 76G1 with D224E, Q266S, I284T, S357N, I366V, G393K
B5: UGT76G1var83: UGT76G1 variant, mutations I43V_Q342E_S357N_S375R_L379G (protein, UniProt Q6VAB4 1-458, looked up, variant I43V Q342E S357N S375R L379G)
UDP-glycosyltransferase 76G1: B2 UDP-glycosyltransferase 76G1 with I43V, D224E, I284T, Q342E, S357N, I366V, L373I, S375R, L379G, G393K
B6: UGT76G1var86: UGT76G1 variant, mutations E224A_T284L_V396F_Y397E_I407V (protein, UniProt Q6VAB4 1-458, looked up, variant E224A T284L V396F Y397E I407V)
UDP-glycosyltransferase 76G1: B2 UDP-glycosyltransferase 76G1 with D224A, I284L, I366V, L373I, G393K, V396F, Y397E, I407V
B7: UGT76G1var90: UGT76G1 variant, mutations E231A_S241I_S274G_Y397Q_Q425E (protein, UniProt Q6VAB4 1-458, looked up, variant E231A S241I S274G Y397Q Q425E)
UDP-glycosyltransferase 76G1: B2 UDP-glycosyltransferase 76G1 with D224E, E231A, S241I, S274G, I284T, I366V, L373I, G393K, Y397Q, Q425E
B8: UGT76G1var80: UGT76G1 variant, mutations L243P_L379A_S389E_Q425E_Q432E (protein, UniProt Q6VAB4 1-458, looked up, variant L243P L379A S389E Q425E Q432E)
UDP-glycosyltransferase 76G1: B2 UDP-glycosyltransferase 76G1 with D224E, L243P, I284T, I366V, L373I, L379A, S389E, G393K, Q425E, Q432E
B9: UGT76G1var84: UGT76G1 variant, mutations F22L_Q266S_F314S_A352G_S357C (protein, UniProt Q6VAB4 1-458, looked up, variant F22L Q266S F314S A352G S357C)
UDP-glycosyltransferase 76G1: B2 UDP-glycosyltransferase 76G1 with F22L, D224E, Q266S, I284T, F314S, A352G, S357C, I366V, L373I, G393K
B10: UGT76G1var82: UGT76G1 variant, mutations E224D_L243A_F265L_R334H_A352G (protein, UniProt Q6VAB4 1-458, looked up, variant E224D L243A F265L R334H A352G)
UDP-glycosyltransferase 76G1: B2 UDP-glycosyltransferase 76G1 with L243A, F265L, I284T, R334H, A352G, I366V, L373I, G393K
B11: UGT76G1var96: UGT76G1 variant, mutations F22L_E229A_L243P_F377C_A385T (protein, UniProt Q6VAB4 1-458, looked up, variant F22L E229A L243P F377C A385T)
UDP-glycosyltransferase 76G1: B2 UDP-glycosyltransferase 76G1 with F22L, D224E, E229A, L243P, I284T, I366V, L373I, F377C, A385T, G393K
B12: UGT76G1var85: UGT76G1 variant, mutations T284L_G348P_F377C_P382M_N409R (protein, UniProt Q6VAB4 1-458, looked up, variant T284L G348P F377C P382M N409R)
UDP-glycosyltransferase 76G1: B2 UDP-glycosyltransferase 76G1 with D224E, I284L, G348P, I366V, L373I, F377C, P382M, G393K, N409R
B13: UGT76G1var91: UGT76G1 variant, mutations E224A_L246F_T263S_F265I_Q342K (protein, UniProt Q6VAB4 1-458, looked up, variant E224A L246F T263S F265I Q342K)
UDP-glycosyltransferase 76G1: B2 UDP-glycosyltransferase 76G1 with D224A, L246F, T263S, F265I, I284T, Q342K, I366V, L373I, G393K
B14: UGT76G1var92: UGT76G1 variant, mutations K303G_S357N_V366I_V394I_I407V (protein, UniProt Q6VAB4 1-458, looked up, variant K303G S357N V366I V394I I407V)
UDP-glycosyltransferase 76G1: B2 UDP-glycosyltransferase 76G1 with D224E, I284T, K303G, S357N, L373I, G393K, V394I, I407V
B15: UGT76G1var89: UGT76G1 variant, mutations F41L_E229A_E231A_F265L_P272A (protein, UniProt Q6VAB4 1-458, looked up, variant F41L E229A E231A F265L P272A)
UDP-glycosyltransferase 76G1: B2 UDP-glycosyltransferase 76G1 with F41L, D224E, E229A, E231A, F265L, P272A, I284T, I366V, L373I, G393K
B16: UGT76G1var95: UGT76G1 variant, mutations A33G_I295M_K303G_I335V_A385T (protein, UniProt Q6VAB4 1-458, looked up, variant A33G I295M K303G I335V A385T)
UDP-glycosyltransferase 76G1: B2 UDP-glycosyltransferase 76G1 with A33G, D224E, I284T, I295M, K303G, I335V, I366V, L373I, A385T, G393K
B17: UGT76G1var88: UGT76G1 variant, mutations A239V_T284I_V310I_Q342K_L379A (protein, UniProt Q6VAB4 1-458, looked up, variant A239V T284I V310I Q342K L379A)
UDP-glycosyltransferase 76G1: B2 UDP-glycosyltransferase 76G1 with D224E, A239V, V310I, Q342K, I366V, L373I, L379A, G393K
B18: UGT76G1var93: UGT76G1 variant, mutations I43V_Q266E_S375M_S389E_V394I (protein, UniProt Q6VAB4 1-458, looked up, variant I43V Q266E S375M S389E V394I)
UDP-glycosyltransferase 76G1: B2 UDP-glycosyltransferase 76G1 with I43V, D224E, Q266E, I284T, I366V, L373I, S375M, S389E, G393K, V394I
B19: UGT76G1var81: UGT76G1 variant, mutations A33G_T263S_S274G_V279I_Y397E (protein, UniProt Q6VAB4 1-458, looked up, variant A33G T263S S274G V279I Y397E)
UDP-glycosyltransferase 76G1: B2 UDP-glycosyltransferase 76G1 with A33G, D224E, T263S, S274G, V279I, I284T, I366V, L373I, G393K, Y397E
B20: UGT76G1var5: UGT76G1 variant, mutations F22Y_I373L_P382M (protein, UniProt Q6VAB4 1-458, looked up, variant F22Y I373L P382M)
UDP-glycosyltransferase 76G1: B2 UDP-glycosyltransferase 76G1 with F22Y, D224E, I284T, I366V, P382M, G393K

Assays:
[1] = Catalytic test Rebaudioside A to Rebaudioside D with in-vitro expressed UDP-glucosyltransferases (Examples 20, 21), HPLC; type: biochemical; conditions: in-vitro expressed enzyme
Description: The prepared expression medium mix was added to the plasmid solution and the solution was allowed to incubate at 30° C. for 3 hours while mixing the mixture every 45 minutes. 5 μL of the mixture was frozen whereas the remainder was used for the catalytic test for the conversion of Rebaudioside A to Rebaudioside D.
(§1) 430 μL of a reaction mixture containing 0.5 mM Rebaudioside A, 3 mM MgCl2, 50 mM phosphate buffer (pH7.2) and 2.5 mM UDP-glucose was added to a 1.5 mL sterile microtube. 52 μl of the enzyme expression medium was added and the resulting mixture was allowed to react at 30° C. for 24 hours. 125 μL samples were taken after 2 hours, 16 hours and 24 hours and added to a 115 μL of 60% methanol and 10 μL of 2 N H2SO4. The quenched sample was centrifuged at 18,000 g for 2 minutes at RT. 200 μL was transferred to an HPLC vial and analyzed.
The HPLC assay was performed as follows:
as §1, with “μL” for “μl”, “to” for “to an”
The HPLC assay was performed as described in EXAMPLE 20.

[2] = Directed evolution of UGT76G1, Rebaudioside D to Rebaudioside M, round 1 (Example 26); type: biochemical; conditions: 100 μL fresh lysate, 0.5 mM Rebaudioside D, 30° C., pH 7.2
Summary of the method: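 Cleared cell lysate (Bugbuster) incubated with 0.5 mM Rebaudioside D, 3 mM MgCl2 and 2.5 mM UDP-glucose in 50 mM phosphate pH 7.2 at 30 °C. Samples at 2, 4, 7 and 24 h analysed by HPLC-CAD for conversion and initial rate.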

Row | Molecule | Conversion RebA to RebD [1] | conversion Reb D to Reb M after 24 h [2] [%] | initial rate [2] [Reb M area/min]
1 | B1 | Active |  | 
2 | B2 |  | 8.5 | 3.8E+06
3 | B3 |  |  | 2.1E+07
4 | B4 |  | 0.5 | 1.8E+06
5 | B5 |  | 0.5 | 4.3E+04
6 | B6 |  | 1.6 | 3.8E+05
7 | B7 |  |  | 1.9E+07
8 | B8 |  | 1.0 | 2.1E+05
9 | B9 |  | 1.2 | 2.3E+05
10 | B10 |  | 1.1 | 2.5E+05
11 | B11 |  | 1.2 | 2.7E+05
12 | B12 |  | 1.8 | 4.0E+05
13 | B13 |  | 1.2 | 2.3E+05
14 | B14 |  | 1.6 | 3.6E+05
15 | B15 |  | 1.2 | 2.1E+05
16 | B16 |  | −1.3 | −1.7E+05
17 | B17 |  | 1.6 | 3.8E+05
18 | B18 |  | 1.8 | 4.5E+05
19 | B19 |  | 15.0 | 6.5E+06
20 | B20 |  | 3.5 | 2.3E+06
